# Experimental data from patent publication US20230295310A1 (ABCELLERA BIOLOGICS, published 2023).
# Where a chain is given by its changes, count along the chain named.
# B1: GOMP001_bsAb_011 (bispecific antibody, human IgG1, kappa, L234A L235A)
# heavy 1: QVQLVQSGAEVKKPGASVKVSCKASGYTFTSHWMHWVRKAPGQGLEWIGEFNPSNGRTNYNEEFKSKATMTVDTSTNTAYMELSSLRSEDTAVYYCASRDYDYDGRYFDYWGQGTLVTVSSASTKGPSVFPLAPSSKSTSGGTAALGCLVADYFPEPVTVSWNSGALTSGVHTFPAVLQSSGLYSLSSVVTVPSSSLGTQTYICNVNHKPSNTKVDEKVEPKSCDKTHTCPPCPAPEAAGGPSVFLFPPKPKDTLMISRTPEVTCVVVDVSHEDPEVKFNWYVDGVEVHNAKTKPREEQYNSTYRVVSVLTVLHQDWLNGKEYKCKVSNKALPAPIEKTISKAKGQPREPQVYTLPPSREEMTDNQVSLTCLVKGFYPSDIAVEWESNGQPENNYKTTPPVLMSDGSFFLASKLTVDKSRWQQGNVFSCSVMHEALHNHYTQKSLSLSPG
# light 1: RIQMTQSPSSLSASVGDRVTITCSASSSVTYMYWYQDKPGKAPKLLIYDTSNLASGVPSRFSGSGSGTDYTFTISSLQPEDIATYYCQQWSSHIFTFGQGTKVEIKRTVAAPSVFIFPPSDKQLKSGTARVVCLLNNFYPREAKVQWKVDNALQSGNSQESVTEQDSKDSTYSLSSTLTLSKADYEKHKVYACEVTHQGLSSPVTKSFNRGEC
# heavy 2: EVQLVESGGGLVQPGGSLRLSCAASGFTLSSYTMNWVRYAPGKGLEWVSYISSSSRTIYYSDRVKGRFSISRDNAKNSLYLQMNSLRDEDTALYYCAREDYYDSSGFDNWGRGTLVTVSSASTKGPSVFPLAPSSKSTSGGTAALGCLVKDYFPEPVTVSWNSGALTSGVHTFPAVLQSSGLYSLSSVVTVPSSSLGTQTYICNVNHKPSNTKVDKKVEPKSCDKTHTCPPCPAPEAAGGPSVFLFPPKPKDTLMISRTPEVTCVVVDVSHEDPEVKFNWYVDGVEVHNAKTKPREEQYNSTYRVVSVLTVLHQDWLNGKEYKCKVSNKALPAPIEKTISKAKGQPRRPRVYTLPPSREEMTKNQVSLVCLVKGFYPSDIAVEWESNGQPENNYKTTPPVLDSDGSFFLYSVLTVDKSRWQQGNVFSCSVMHEALHNHYTQKSLSLSPG
# light 2: DIRMTQSPSSFSASTGDRVTITCRASQGISSYLAWYQRKPGDAPKLLIYTASTLQSGVPSRFSGSGSGTDFTLTIRSLQSEDFATYYCQQYYSYPRTFGQGTKVEIKRTVAAPSVFIFPPSDEQLKSGTASVVCLLNNFYPREAKVQWKVDNALQSGNSQESVTEQDSKDSTYSLSSTLTLSKADYEKHKVYACEVTHQGLSSPVTKSFNRGEC
# B2: GOMP001_bsAb_012 (bispecific antibody, human IgG1, kappa, L234A L235A)
# heavy 1: B1 heavy 2
# light 1: B1 light 2
# heavy 2: QVQLVQSGAEVKKPGASVKVSCKASGYTFTSHWMHWVRYAPGQGLEWIGEFNPSNGRTNYNEKFKSKATMTVDTSTNTAYMELSSLRSEDTAVYYCASRDYDYDGRYFDYWGRGTLVTVSSASTKGPSVFPLAPSSKSTSGGTAALGCLVKDYFPEPVTVSWNSGALTSGVHTFPAVLQSSGLYSLSSVVTVPSSSLGTQTYICNVNHKPSNTKVDKKVEPKSCDKTHTCPPCPAPEAAGGPSVFLFPPKPKDTLMISRTPEVTCVVVDVSHEDPEVKFNWYVDGVEVHNAKTKPREEQYNSTYRVVSVLTVLHQDWLNGKEYKCKVSNKALPAPIEKTISKAKGQPRRPRVYTLPPSREEMTKNQVSLVCLVKGFYPSDIAVEWESNGQPENNYKTTPPVLDSDGSFFLYSVLTVDKSRWQQGNVFSCSVMHEALHNHYTQKSLSLSPG
# light 2: B1 light 1 with R1D, D37R, K41D, K122E, R130S
# B3: mAb 283 (antibody, V domains shown)
# VH: QVHLVQSGAEVKKPGASVRVSCKASGYTFTGYYIHWLRQAPGQGLEWLGWINPNSGGTNYSQKFRGRVTMTRDTSISTAYMELSRLRSDDTAVYYCARDKVWEQQLVGGFDYWGQGTLVTVSS
# VL: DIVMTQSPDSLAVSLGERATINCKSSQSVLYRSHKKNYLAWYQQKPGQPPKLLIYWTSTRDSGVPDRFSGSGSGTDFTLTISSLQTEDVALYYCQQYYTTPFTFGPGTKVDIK
# notes: VH/VL only
# B4: mAb 258 (antibody, V domains shown)
# VH: EVQLLESGGGLVQPGGSLRLSCAASGFTFSNYAMNWVRQAPGKGLEWVSVISNSGGTRLYVDSVKGRFTISRDNSKNTLYLQMSSLRAADTAVYYCAKDAAAALYYYYFYYMDVWGKGTTVTVSS
# VL: EIVLTQSPDFQSVTPKEKVTITCRASQSIGSSLHWYQQKPDQSPKLLIKYASQSFSGVPSRFSGSGSGTDFTLTINSLEAEDAATYYCHQSSSLPYTFGQGTKLEIK
# notes: VH/VL only
# B5: mAb 276 (antibody, V domains shown)
# VH: EVQLVESGGGLVQPGGSLRLSCAASGIPFSTYSMNWVRQAPGKGLEWVSYISGSSRTIYYADSVKGRFTISRDNAKKLLFLQMNSLRDEDTAVYYCAREGDYYDSSGWAYWGQGTLVTVSS
# VL: DIQMTQSPSSLSASVGDRVTITCRASQNIYKYLNWYEQKPGRAPKLLIYTTSNLQSGVPSRFSGSGSGTAFTLIISSLQPEDFATYYCQQSYGSPYTFGQGTKLEIK
# notes: VH/VL only
# B6: mAb 264 (antibody, V domains shown)
# VH: EVQLLESGGGLVQPGGSLRLSCVASGFTFRSSSMTWVRQAPGKGLEWVSGIRGSGGRTYDAESVKGRFTISRDNSKNTLYLQMNSLRAEDTAEYYCAKLYDYYNDYMDVWGKGTTVTVSS
# VL: SYELTQPLSVSVALGQTARITCGGNNIGSKNVHWYQQKPGQAPVLVIYRDSNRPSGIPERFSGSNSGNTATLTISRAQAGDEADYYCQVWDSSTAVFGGGTQLTAL
# notes: VH/VL only
# B7: mAb 284 (antibody, V domains shown)
# VH: EVQLLESGGGLVQPGGSLRLSCAASGFTFSSYAMSWVRQAPGKGLEWVSAISGSSGRTYYTDSVKGRFTISRDNSKNTLSLQMNSLRAEDTAVYYCAKKYSYYYYYMDVWGKGTTVTVSS
# VL: B6 VL with R19K
# notes: VH/VL only
# B8: mAb 263 (antibody, V domains shown)
# VH: EVQLLESGGGLVQPGGSLRLSCTPSGITFNNYAMTWVRQAPGKGLEWVSGISVSGGSTYYADSVMGRFTISRDSSKTLYLQMNSLRAEDTAVYYCAKFHSHYYYYMDVWGKGTTVTVSS
# VL: B6 VL with N31D, S92R, S93R
# notes: VH/VL only
# B9: mAb 260 (antibody, V domains shown)
# VH: B6 VH with T35A, T69I, N74T, A88G, Y95F
# VL: B6 VL
# notes: VH/VL only
# B10: mAb 262 (antibody, V domains shown)
# VH: B6 VH with Q3R, V23A, T35A, A40D, S49T, E62D
# VL: B6 VL
# notes: VH/VL only
# B11: mAb 261 (antibody, V domains shown)
# VH: EVQLLESGGGFMQPGGSLRLSCAVSGFTFRTSSMAWVRQAPGKGLEWVSGIRGSGGRTYDAESVKGRFTISRDISKNTLYLQMNNLRAEDTAEYYCAKLYDYYNDFMDVWGKGTTVIVSA
# VL: B6 VL
# notes: VH/VL only
# B12: mAb 259 (antibody, V domains shown)
# VH: B6 VH with Q3L, V23A, N74I, L86V
# VL: B6 VL
# notes: VH/VL only
# Target: human EGFR, C-terminal eGFP-tagged, on CHO-K1 cells (human, UniProt P00533 25-1210)
# Test: cell-based or functional assay
"EC50 CHO-K1 EGFR Low (nM); T cell activation bioassay, luciferase","EC50 CHO-K1 EGFR Med (nM); T cell activation bioassay, luciferase",Binder
0.106 nM,0.0263 nM,B1
0.147 nM,0.0234 nM,B2

# Target: T1, human CD3 expressed on cells (Jurkat cells; human primary T cells) (human, UniProt P07766 23-207; P04234 22-171; P09693 23-182)
# T1 construct: whole, on cells
# Test: flow cytometry, 25 nM, Jurkat cells
# Procedure, shortened: (§1)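 Binding reported as fold over isotype: median fluorescence intensity divided by isotype control, with ≥10 scored positive. Cells were exposed to 25 nM antibody in PBS/2% FBS, 30 min, 4 °C, before flow cytometric read-out.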
# T1 sequence (P07766 23-207, chain 1 of 3): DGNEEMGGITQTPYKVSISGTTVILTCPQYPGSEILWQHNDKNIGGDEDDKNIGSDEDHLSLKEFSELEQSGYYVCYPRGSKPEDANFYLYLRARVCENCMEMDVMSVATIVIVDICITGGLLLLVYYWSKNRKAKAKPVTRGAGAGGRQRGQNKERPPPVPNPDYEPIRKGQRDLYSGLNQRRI
# T1 sequence (P04234 22-171, chain 2 of 3): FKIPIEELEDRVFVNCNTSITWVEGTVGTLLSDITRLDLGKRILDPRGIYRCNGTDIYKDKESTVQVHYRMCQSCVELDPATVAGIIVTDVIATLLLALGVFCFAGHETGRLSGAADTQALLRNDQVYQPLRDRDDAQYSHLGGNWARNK
# T1 sequence (P09693 23-182, chain 3 of 3): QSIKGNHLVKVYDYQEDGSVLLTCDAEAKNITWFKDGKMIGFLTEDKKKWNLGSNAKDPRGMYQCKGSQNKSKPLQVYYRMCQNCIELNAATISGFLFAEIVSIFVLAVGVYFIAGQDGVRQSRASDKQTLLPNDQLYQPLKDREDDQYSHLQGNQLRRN
row,Binding (FOI),Binder
1,216 FOI,B3
2,147 FOI,B4
3,156 FOI,B5
4,174 FOI,B6
5,226 FOI,B7
6,188 FOI,B8
7,178 FOI,B9
8,165 FOI,B10
9,188 FOI,B11
10,169 FOI,B12

# Target: T2, cynomolgus monkey CD3 expressed on cyno primary T cells (cynomolgus monkey, UniProt Q95LI5 22-198; Q95LI8 22-171; Q95LI7 23-181)
# T2 construct: whole, on cells; CD3 complex on purified cynomolgus monkey CD3 pan T cells; also called cyno CD3
# Test: flow cytometry, cyno primary T cells
# Procedure, shortened: as §1
# T2 sequence (Q95LI5 22-198, chain 1 of 3): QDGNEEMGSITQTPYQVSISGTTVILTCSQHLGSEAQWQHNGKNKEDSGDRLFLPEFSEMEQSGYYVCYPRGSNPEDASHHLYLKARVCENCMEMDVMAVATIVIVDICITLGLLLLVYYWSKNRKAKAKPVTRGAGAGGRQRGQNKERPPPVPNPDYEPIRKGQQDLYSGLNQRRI
# T2 sequence (Q95LI8 22-171, chain 2 of 3): as the sequence (P04234 22-171, chain 2 of 3) above, with I5V, N15K, I20V, S32T, D33N, I34N, T64A, S74N, V83L, H141R counted along it
# T2 sequence (Q95LI7 23-181, chain 3 of 3): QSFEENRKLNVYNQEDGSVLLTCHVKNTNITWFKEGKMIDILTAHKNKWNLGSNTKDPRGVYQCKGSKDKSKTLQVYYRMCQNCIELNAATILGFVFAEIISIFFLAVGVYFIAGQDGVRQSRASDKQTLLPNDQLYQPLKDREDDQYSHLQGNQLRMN
row,Binder,binding result
1,B3,no binding (tested: FOI <10 (FOI >=10 = positive); 25 nM)
2,B4,no binding (tested: FOI <10 (FOI >=10 = positive); 25 nM)
3,B5,no binding (tested: FOI <10 (FOI >=10 = positive); 25 nM)
4,B6,no binding (tested: FOI <10 (FOI >=10 = positive); 25 nM)
5,B7,no binding (tested: FOI <10 (FOI >=10 = positive); 25 nM)
6,B8,no binding (tested: FOI <10 (FOI >=10 = positive); 25 nM)
7,B9,no binding (tested: FOI <10 (FOI >=10 = positive); 25 nM)
8,B10,no binding (tested: FOI <10 (FOI >=10 = positive); 25 nM)
9,B11,no binding (tested: FOI <10 (FOI >=10 = positive); 25 nM)
10,B12,no binding (tested: FOI <10 (FOI >=10 = positive); 25 nM)

# Target: T1, human CD3 expressed on cells (Jurkat …)
# Test: flow cytometry, 25 nM, human primary T cells
# Procedure, shortened: as §1
row,Binding (FOI),Binder
1,128 FOI,B3
2,113 FOI,B4
3,149 FOI,B5
4,220 FOI,B6
5,209 FOI,B7
6,248 FOI,B8
7,219 FOI,B9
8,219 FOI,B10
9,229 FOI,B11
10,214 FOI,B12
